Data: IntAct's records for PubMed 29072299

B1: Mothers against decapentaplegic homolog 4 (Mus musculus), P97471 (parent)
chain: MDNMSITNTPTSNDACLSIVHSLMCHRQGGESETFAKRAIESLVKKLKEKKDELDSLITAITTNGAHPSKCVTIQRTLDGRLQVAGRKGFPHVIYARLWRWPDLHKNELKHVKYCQYAFDLKCDSVCVNPYHYERVVSPGIDLSGLTLQSNAPSMLVKDEYVHDFEGQPSLPTEGHSIQTIQHPPSNRASTETYSAPALLAPAESNATSTTNFPNIPVASTSQPASILAGSHSEGLLQIASGPQPGQQQNGFTAQPATYHHNSTTTWTGSRTAPYTPNLPHHQNGHLQHHPPMPPHPGHYWPVHNELAFQPPISNHPAPEYWCSIAYFEMDVQVGETFKVPSSCPVVTVDGYVDPSGGDRFCLGQLSNVHRTEAIERARLHIGKGVQLECKGEGDVWVRCLSDHAVFVQSYYLDREAGRAPGDAVHKIYPSAYIKVFDLRQCHRQMQQQAATAQAAAAAQAAAVAGNIPGPGSVGGIAPAISLSAAAGIGVDDLRRLCILRMSFVKGWGPDYPRQSIKETPCWIEIHLHRALQLLDEVLHTMPIADPQPLD
partner: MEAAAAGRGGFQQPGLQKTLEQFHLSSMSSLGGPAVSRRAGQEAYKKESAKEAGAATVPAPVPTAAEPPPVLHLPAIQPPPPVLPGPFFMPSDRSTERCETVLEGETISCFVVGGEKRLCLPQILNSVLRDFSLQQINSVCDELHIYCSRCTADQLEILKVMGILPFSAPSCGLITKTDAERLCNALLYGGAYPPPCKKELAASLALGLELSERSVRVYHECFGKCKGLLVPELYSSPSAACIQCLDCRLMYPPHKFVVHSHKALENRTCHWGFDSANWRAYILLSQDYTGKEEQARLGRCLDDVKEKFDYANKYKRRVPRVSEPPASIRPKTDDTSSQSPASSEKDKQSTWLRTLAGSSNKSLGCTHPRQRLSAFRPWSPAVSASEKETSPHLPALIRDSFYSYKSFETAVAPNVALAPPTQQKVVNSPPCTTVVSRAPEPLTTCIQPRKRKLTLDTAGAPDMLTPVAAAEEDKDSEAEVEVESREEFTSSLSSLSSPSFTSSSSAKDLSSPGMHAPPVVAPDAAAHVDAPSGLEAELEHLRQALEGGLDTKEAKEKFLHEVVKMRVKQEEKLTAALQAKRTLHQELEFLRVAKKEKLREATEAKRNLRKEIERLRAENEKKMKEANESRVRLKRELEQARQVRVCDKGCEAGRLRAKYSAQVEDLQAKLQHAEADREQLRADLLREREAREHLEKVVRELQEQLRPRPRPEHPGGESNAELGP

Variants of: B1
Conditions: with ski_mouse Ski

| effect of a mutation on the interaction | Variant |
| --- | --- |
| disrupting interaction strength | Y429A |
| disrupting interaction strength | A432E |
